The DeepSol protein solubility set

Test: soluble on expression in E. coli; label from the status in PepcDB or PDB records
In the case of “GPGSMSALWARFTEKLKGSGYTLSDLVYCSEDTFLTLVANMNAFTPLQIASLAKEWQRSLSAAATPTATVSGSALPISRRHAESTRLSSSPVRSSALNRATLPATGAAETPPNHSTLSTALRKNSFVPPRRSPAKVKEEAEYLLTKLGAQSGAEYQVSLTEGIVAVEASPEAWGPLLDRVSRMHVTSHRDSAAAATPLATELQLLWKLCSPATLRKMEKACVSGAPFGLSNQDDADGLCSSAVVLYGKDATRLAAPAEELEQLFREGWGLVAFDVAVGKARTVTKEEAQDLNANLYRFSMEQCLEMLEEAGFDAFHIPSRNAVAVCHMHQLMPRFVVFVSTLEPVVVTRRLGDAVPAVGNGRPSRAPPAPAASPSPSAVAAAAAALPAARRSINGGDDVLVPASRSSRNSEDLQCAVHSKKTVEFWSPTEKRLLCSHCLYYDGYSQENCIPIEQAAREEAPRLERWVQNAITFSQEIKSVFDLFEAAQTDVSQTHKQVRSDIAHSFTRLRARLDALEANLQQQCQQKAQQNLQVLQDTLSRITATVQFVSEVVQDADEPVAAYRGGVADTNTCVALLRSAQRAFGAWEPVTISAYEDVRIVDGSALLQPVEEALKAVQSISSEAGKVQLPEAIDVNYLKSDCDV”, the “soluble on expression in E. coli” value is reported as “not soluble”. In the case of “MPRAVAERGDVVPVLAEVFRSHGFDGASLAVITEHTGLGKGSLYNFFPRGKDEMAEAVLDEVDAWFQTAVYLPLRGSEPAAARLERMFDEVETYFRSGRRICLFGAFALGLERDRFADRVRAYFTDWVDSLAGALADAGHGRPSRPLAEEVVAGIQGALVLARALDDPDSFTRILTRLRRSVGDPTTSRA”, the “soluble on expression in E. coli” value is reported as “soluble”. For “GTVEGVVGVTREVTEQRKHEMEIARQRSILKAQQEAVIDGILVVDEDDTIVSYNERFVDMWDIPRDIVERGDEEIALEWAMEQVAEPEAFRVDVEALYEDPETTARDELELADGRVFDRYTAPVVAEDGTRFGRLWAFRD”, the “soluble on expression in E. coli” value was “not soluble”. With “DAPLPHLRFALASCANWEAGFFAAYGDIARRADAGELEMLIFLGDYIYEYATGMFAGKDGVVRPHQPLHETITLEHYRTRYGHYRSDNHLQAAHAALPWIVMWDDHESANNSNREGAQNHSADEGSWVDRQNAARQVFLEWMPIRQEDTLYRSFTFGDLATLSLLDLRSFRDPAPSQQQWLEGQRADTMMGSQQFEWLKSNVEHTTTTWNIIGSSVMFAPMAITGQPLFQIPEPIPANLDQWDGYSRERDRLLAVLADFATPTLFLSGDIH” the “soluble on expression in E. coli” value was “not soluble”. In the case of “MAIHVEHVGVLERAREVSRLEDIITEDNEDIEAEMPKMRDDPAGKEARFLQATDEMSAALTQFMKKKIYEEQLANFLDGEEYVLEDQPIEKTDKVMEALKAATTHDYEVYSFAKKLFPDESDLVVVLRAILRKKQISENVRLNAEALLRKVNQETTKKFINSGINSALKAKLFGQALSLNPKLLRASYRQFLMAEDDAVDTYVEWIGSYGYQNRMLVTKFIKETLFSDINALDASCSSLEFGMFLNKLSQLLSLQSAEALFLKTLMNNPIIKKFISAEDYWIFFLISLIKFPETAEELLNNALVTLPADANYKDKTLLLKAIYSGCTNLPFSLFINNEQLLEIRECCKQAIKVTFAAELFDTQNCNKKQNKKPWKKVMFNV”, the “soluble on expression in E. coli” value is reported as “not soluble”. In the case of “MGSDKIHHHHHHMKASVIIPAYNSKERLYNSLLSLNQQECDEEFEVIVADNGSEDGTLSMLESFQADFPLIFTRIKENRGIAYGRNQALRNARGDILIFHDSDMLAAKDLVAKHIKAHENEENLVVCGLFWKRIYSFYYERFEEEHKEQLAKLTGEMPKKDKQKLLEEADIKNGSFLDKSFDLDTDFIDVLKKILDEYGDDLKGYHMPWRFFITNNSSVKRKHVVDLGLFDEGIVRYGFEDYDLGIRLHQAGLTFRLRRDIVSVHQEHPSNCKSVDDIRANIAYMCDKYNNIRSLDVHLAFNGPFPPDMTNRIMADIQKLLESQKYDMLLNLFLELLHVVKERNIDPDWRKKSPRVTAKSFDLQTVRKLLPKAKKKLGVNDFANALYALVNDLLHVDLRSLDVV”, the “soluble on expression in E. coli” value is reported as “not soluble”. In the case of “MGSDKIHHHHHHMNFEKIEQAYDLLLENVQTIQNQLGTNIYDAMIEQNAAYVANQHETDLVVNNNQTLKQLDLTKEEWRRAYQFLLIKANQTEPMQYNHQFTPDSIGFILSFLVDQLVPTQKVTVLEIGSGTGNLAQTILNASQKDLDYLGIEVDDLLIDLSASIADVMQADISFAQGDAVRPQILKESQVILGDLPIGYYPDDQIASRYQVASPNEHTYAHHLLMEQSLKYLEKDGFAILLAPNDLLTSPQSDLLKGWLQEQANIVAMIALPPNLFGKAAMAKSIFVLQKKAARSLTPFVYPLQSLQEPEAIQKFM”, the “soluble on expression in E. coli” value is reported as “not soluble”. For “MENLKIRYIDTRKIGTVSGVKVPVKKGYKIVVEDEEKGEDIVEVLGYSREESKNGIQPRFVRVANKRDLEIFKKNMRESERAFEICKEKIKEHGLDMHLLKAYIPLNRKKVFFYYLAEERVDFRNLVRDLAKIFKRRIEMRQIGVRDAVQMKGWIGRCMRETCCSQFMENFQSISLRDITEQNLPLSPSKFTGPCGRLVCCMAFERENYLLKILFPEPGTKLCYNKQEVTLLEVDPLRETVVLQYDELGKKVELGVRDMLPKGYEKALEHCRSCQFCCRRVYEEATEHEIVKSSAELEHHHHHH”, the “soluble on expression in E. coli” value was “not soluble”. For “MEEEVSRKTVAISVQAAKLTGRVLFMACQKFLAGVQKHNRDALTPHGRQTVKQLMGHTGQSNSIQLKGDARLFDRVARKFNVDYAFHKVGPKDYLLFFKAGQADAITAAFSEYTKRVMARQNDKPSIRRGLRQAMGRVKPRQKEREKTREAVQER”, the “soluble on expression in E. coli” value was “not soluble”. With “MGANGASGDHKQLKEIRIGIQQSLSPLLIAKEKGWFEDAFEKEGIKVKWVEFQSGPPQFEGLAADKLDFSQVGNSPVIAGQAAGIDFKEIGLSQDGLKANGILVNQNSGIQDVKGLKGKKIAVAKGSSGFDFLYKALDQVGLSANDVTIIQLQPDEAASAFENGSVDAWSIWEPYLSLETMKHGAKILVNGESTDLYSPGFTLVRTKFSEEHPDEVVRFLKVFNKAVVWQKEHLDEAADLYSDIKDLDKKVVENVLKNTEPLNEIISDDIVKAQQETADFQFRTKAIDKKIDVKDVVDNTFIKKALEEHSSGGDQLEHHHHHH” the “soluble on expression in E. coli” value was “soluble”. For “MGSDKIHHHHHHMEKLRVIEMIKNNPNIIATIDNPTDEMKLLAIKENGLVLEYINNPTREMQELAIDNNIRAIKFIDNPTEDMMIKAVNEGWSILDYIKNPTDKVIEMAINQAGWAIKYAKNPSEELQLLAVRKNYDSIKFIKQPYESVQEEAVRISYDALRYIDSPSYNAELVAIKNNEAAISFITDLDKNKMLEFLKVNILVIKYILKKVSKDELESVLKEVLSKEDVEEKYIRDFLNCSVIDRNSESIPIDKIMFIYKYGSKTAKKIAVDEKLKIM”, the “soluble on expression in E. coli” value was “not soluble”. For “MYIVIMGAGRIGTLVARMLESEGHDVAIIEMNRERAREISEYISGLVIEGDATDQKVLENANIKNANAFAALTGKDDANILACILAKHLNPNIMTILRITDPGKKKIFEDVKELKTYFDIVVSPEDIAANYIFRTLVTPGFNRVLLPREGAEIIQFQIDEDCEVAGKPVKELNLPKDSLIIAVYDEKGNLTIPSGDTIIPKKGQVIIFAKNSALQEVKKIMEKKKKEQ”, the “soluble on expression in E. coli” value was “soluble”. In the case of “MSAKQVSKDEEKEALNLFLSTQTIIKEALRKLGYPGDMYELMKEPQRMLTVRIPVKMDNGSVKVFTGYRSQHNDAVGPTKGGVRFHPEVNEEKVKALSIWMTLKCGIANLPYGGGKGGIICDPRTMSFGELERLSRGYVRAISQIVGPTKDIPAPDVYTNSQIMAWMMDEYSRLREFDSPGFITGKPLVLGGSQGRETATAQGVTICIEEAVKKKGIKLQNARIIIQGFGNAGSFLAKFMHDAGAKVIGISDANGGLYNPDGLDIPYLLDKRDSFGMVTNLFTDVITNEELLEKDCDILVPAAISNQITAKNAHNIQASIVVERANGPTTIDATKILNERGVLLVPDILASAGGVTVSYFEWVQNNQGYYWSEEEVAEKLRSVMVSSFETIYQTAATHKVDMRLAAYMTGIRKSAEASRFRGWV”, the “soluble on expression in E. coli” value is reported as “soluble”. For “MTISTTSTPHDAVFKSFLRHPDTARNFINIHLPAPLRKLCDLTTLKLEPNSFIDEDLRQYYSDLLWSVKTQEGVGYIYVVIEHQSKPEELMAFRMMRYSIAAMQNHLDAGYKELPLVIPMLFYHGCRSPYPYSLCWLDEFAEPAIARKIYSSAFPLVDITVVPDDEIMQHRKMALLELIQKHIRQRDLLGLVDQIVSLLVTGNTNDRQLKALFNYVLQTGDAQRFRAFIGEITERAPQEKEKLMTIADRLREEGAMQGKHEEALRIAQEMLDRGLDRELVMMVTRLSPDDLIAQSH”, the “soluble on expression in E. coli” value was “not soluble”. In the case of “GPLGSKNMLLEWCRAMTRNYEHVDIQNFSSSWSSGMAFCALIHKFFPEAFDYAELDPAKRRHNFTLAFSTAEKLADCAQLLEVDDMVRLAVPDSKCVYTYIQELYRSLVQKGLVKTKKK”, the “soluble on expression in E. coli” value is reported as “soluble”. For “MRLTKLAATIGCVTLSGLALVACSSDSTAGTDAVAVGGTFQFHSPDGKMEIFYDEADRQQLPDIGGDSLMEEGTQINLSDFENQVVILNAWGQWCAPCRSESDDLQIIHEELQAAGNGDTPGGTVLGINVRDYSRDIAQDFVTDNGLDYPSIYDPPFMTAASLGGVPASVIPTTIVLDKQHRPAAVFLREVTSKDVLDVALPLVDEA”, the “soluble on expression in E. coli” value was “not soluble”. With “MGGRSRWEIAQESTLALARKCEQFDPDGITVYLFSGKFKRYDDVTSAKVAQIFLENDPAGTTNLAGVLQDALNNYFQRKAAGKTKPNGETILVITDGEPDDRKAVFETIIHATRQMERDEELGISMIQVGSDAQATKFLKALDDQLQSVGAKFDICDTITLEDLEDMSLADVLMNAITDLEHHHHHH” the “soluble on expression in E. coli” value was “not soluble”. In the case of “MAAEIINGEKVIRKPNALYSDYPRKGGAASTATHYCPGCGHGVLHKLIAEAIDDLGIQDRTVMISPVGCAVFAYYYFDTGNIQVAHGRAPAVGTGVSRAEENAVVISYQGDGDLASIGLNETLQAANRGEKIAVFFVNNTVYGMTGGQMAPTTLIGEKTTTTPEGRDPRFAGYPLHMCELLDNLKAPVFIERVSVSDISHIRKARKAIRKALEVQRDGKGYAFVEVLAACPTNLRMDAEQAVSFINEEMEKEFPLRNFRDDSESTEPLYRGVSDFTTESLEKLYGIEADAGEKPVRADFAPIQTKIAGFGGQGVLSMGIVLAQAGVKANLNASWFPSYGPEQRGGTSNCSVVISGQPIGSPTVYTPDILIAMNRPSLERFEGAVRKGGFILYDSTIGEAETPEGVKAVSVPATEKAKEAGDERAANSFMLGVLLGLNATGLEEEAFKGALAENFAGKPRVIAFNQQMLEAGAEWARENVKI”, the “soluble on expression in E. coli” value is reported as “not soluble”. In the case of “ADSVFISGHKNADMDSLGAALGIWRMSRLHDLTAYIIIDDQNLQRDVKLVIGKINDEVDAANEKLKNQATDGKTPKLIEQPFITEKKALSLATDQSLLVLVDHSRPSISAAGQLLEKLKSSLIVIDHHRIADESFSEKPILFYVEQYASSTCELVTELLGYEDRRKSPLTKVEATALLGGIQLDTKGFTSHSGSRTFDAASFLRAAGADAQLLSSFGKESK”, the “soluble on expression in E. coli” value is reported as “not soluble”. In the case of “MELIRWAIELGESVHGNTYEELMPLLDYYYDRDHLKAYCIANLLLNMDVLDEDRERIELRRCIAAYYAGLYKVARKHANELVLKHPDVDLYKNNLRLMEVYLNKEYDYCLFICPKTYGSFIDIARALKWRLEQEGNTVIISETILENVKNTVVFGAHTYAYNPNLLPKDAIVYNLEQLYEGSPYAHPLYLILLKDRVIWDYSKQNIEWLKQKGVGKEIKHVEMNYAPTLEIKKDAFEDEIIEDIDILFIGALNPRRQAIFDHLKAIAPNLNIVFKNNAWGIVRNELIARAKIILNIHFYLSGILETPRVSYAVANKKFIISENSNPEDEVEWPGIVFTPYEKIIENVMKYIELPEERKRLAEKAYNHFEANESLGTLSMRDETK”, the “soluble on expression in E. coli” value is reported as “not soluble”.
